T1: human p75 receptor fusion protein (R&D Systems) (human, UniProt P08138 29-250)
T1 construct: bought fusion protein; also called p75 neurotrophin receptor
T1 sequence (looked up): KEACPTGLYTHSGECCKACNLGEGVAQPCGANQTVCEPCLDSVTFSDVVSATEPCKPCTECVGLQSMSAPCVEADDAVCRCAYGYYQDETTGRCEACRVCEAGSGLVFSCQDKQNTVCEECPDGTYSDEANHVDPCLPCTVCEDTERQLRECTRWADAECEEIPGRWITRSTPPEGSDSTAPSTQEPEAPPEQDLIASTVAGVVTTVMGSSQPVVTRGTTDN

B1: rat nerve growth factor (beta-NGF) (ligand, UniProt P25427 122-241, looked up)
chain: SSTHPVFHMGEFSVCDSVSVWVGDKTTATDIKGKEVTVLGEVNINNSVFKQYFFETKCRAPNPVESGCRGIDSKHWNSYCTTTHTFVKALTTDDKQAAWRFIRIDTACVCVLSRKAARRG
notes: mature; also called rat NGF; recombinant rat β-NGF
B2: 1033B2 scFv (scFv, V domains shown)
VH: QVQLQQSGAEVKKPGSSVKLSCKASGGTFSSFGISWVRQAPGQGLEWLGRIIPFLGPADYAQKFQGRVTITADESRSTAYMELSSLTSEDTAVYFCARSFYDILTGYYEGVFYYYMDVWGQGTMVTVSS
VL: QSVLIQPASVSGSPGQSITISCTGTSSDVGGYNYVSWYQQHPGKAPKLMIYEGSKRPSGVSNRFSGSKSGNTASLTISGLQAEDEADYYCSSYTTRSTRVFGGGTKLTVL
notes: purified scFv
B3: 1057F11 scFv (scFv, V domains shown)
VH: EVQLVETGGGVVQPGTSLRLSCAASGFTFSSHGMHWVRQAPGQGLEWVAHAWSDGSNKYYADSLKGRFTISRDNSRNTLYLQMNSLRAEDTAVYYCARDGQQLANYAMDVWGRGTTVTVSS
VL: DIQMTQSPSFLSASVGDRVTITCRASQGINSYLAWYQQIPGKAPNLLIYAASTLQSGVPSRFSGSGSGTEFTLTISSLQPEDFATYYCQQLNTYPFTFGPGTKVEIK
notes: purified scFv

Assays:
[1] = target: T1, human p75 receptor fusion protein (R&D …); assay: unlabelled NGF displacing rat 125I-NGF from coated p75 fusion protein
Description: Human TrkA and p75 receptor fusion proteins (R&D Systems) were diluted in Dulbecco's PBS (Gibco) to final concentrations of 10 nM and 0.6 nM, respectively. Maxisorp Nunc white 96 well microtitre plates (Nalge Nunc) were coated overnight at 4° C. with 100 μl/well of the diluted TrkA or p75 receptor solution. Plates were washed 3 times with PBS Tween 20, and then blocked with 200 μl/well 3% w/v bovine serum albumin (BSA) in PBS. Plates were washed after 1 h incubation at room temperature. Test antibodies were diluted to the desired concentration in assay buffer (0.5% w/v BSA and 0.05% v/v Tween 20 in PBS). […] Duplicate wells were prepared for each concentration of test sample. […] Bound radiolabel was quantified by addition of 100 μl/well Microscint 20 (Perkin Elmer) followed by counting using a Packard TopCount microplate liquid scintillation counter. Data were plotted and analysed using Graphpad Prism software to calculate IC₅₀ values for each experiment, and to derive the corresponding Ki according to the Cheng-Prusoff equation; Ki=IC₅₀/(1+D/Kd) Where: [0257]

[2] = target: T2, human TrkA receptor extracellular domain fusion protein (R&D Systems) (human, UniProt P04629 33-423); assay: unlabelled NGF displacing rat 125I-NGF from coated TrkA fusion protein
T2 construct: extracellular domain; bought fusion protein; also called TrkA receptor fusion protein

[3] = target: B1; assay: purified scFv, inhibition of NGF binding to coated TrkA fusion protein (DELFIA)
Description: Crude scFv samples were prepared from periplasmic lysates of E. coli TG-1 bacteria transfected with selected phage for evaluation in the binding assay. […] Assay plates were washed with PBS/Tween 20, blocked for 2 h using 1% bovine serum albumin (BSA) in PBS, and washed again. […] Samples were transferred in a volume of 100 μl to assay plates and incubated for 60 min at room temperature. […] Briefly, plates were washed and 100 μl streptavidin Eu³⁺ added to each well, diluted 1/1000 in DELFIA assay buffer. Plates were incubated for a further 60 min at room temperature and washed with DELFIA wash buffer, followed by addition of 100 μl DELFIA enhancement solution to each well. Plates were read using a Wallac Victor fluorimetric plate reader (excitation wavelength 314 nm; emission wavelength 615 nm).
Purified scFv preparations were prepared as described in Example 3 of WO01/66754. Protein concentrations of purified scFv preparations were determined using the BCA method (Pierce).

T2 sequence (P04629 33-423): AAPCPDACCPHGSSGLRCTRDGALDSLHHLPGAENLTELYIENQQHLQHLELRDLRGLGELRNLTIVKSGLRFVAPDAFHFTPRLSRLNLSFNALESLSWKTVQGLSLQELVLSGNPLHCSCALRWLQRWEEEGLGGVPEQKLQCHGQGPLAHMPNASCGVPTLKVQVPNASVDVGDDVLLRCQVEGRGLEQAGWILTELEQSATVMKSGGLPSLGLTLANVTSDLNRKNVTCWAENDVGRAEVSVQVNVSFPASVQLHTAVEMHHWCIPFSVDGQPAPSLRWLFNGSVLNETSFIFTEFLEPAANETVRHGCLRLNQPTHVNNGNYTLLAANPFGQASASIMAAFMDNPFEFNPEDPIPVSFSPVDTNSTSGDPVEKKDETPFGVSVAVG

B1
IC50 [1]: 0.783 nM
Ki [1]: 0.71 nM
IC50 [2]: 1.3 nM
Ki [2]: 1.2 nM

B2
binding result [3]: binds

B3
binding result [3]: binds

From US20080107658A1 (AstraZeneca / MedImmune, published 2008)
